Experimental findings from the MegaScale stability set (Tsuboyama et al. 2023) are described below.

B1: 2K2A (parent)
chain: ELREAFRLYDKEGNGYISTDVMREILAELDETLSSEDLDAMIDEIDADGSGTVDFEEFMGVMT

The data set covers variants of B1. The data set can be described thus: folding stability dG (cDNA display proteolysis); higher = more stable. To be noted: PBS, room temperature.
For the variant ELREAFRLYDKEGNGYISTDVMREILAELDETLSSEDLDAMIDEIDADGSGTVEFEEFMGVMT [D54E], the “folding stability dG” value stood at 1.33 kcal/mol. The value for ELREAFRLYDKEGNGYISTDVMREILAELDETLSSEDLDAMIDEIDADGSGTVGFEEFMGVMT [D54G] was 2.07 kcal/mol.

Consider ELREAFRLYDKEGNGYISTDVMREILAELDETLSSEDLDAMIDEIDADGSGTVQFEEFMGVMT [D54Q], for which the “folding stability dG” value worked out at 1.63 kcal/mol. The result for ELREAFRLYDKEGNGYISTDVMREILAELDETLSSEDLDAMIDEIDADGSGTVCFEEFMGVMT [D54C] reads 1.51 kcal/mol; that for ELREAFRLYDKEGNGYISTDVMREILAELDETLSSEDLDAMIDEIDADGSGTVNFEEFMGVMT [D54N], 2.26 kcal/mol. For the variant ELREAFRLYDKEGNGYISTDVMREILAELDETLSSEDLDAMIDEIDADGSGTVHFEEFMGVMT [D54H], the “folding stability dG” value is 1.68 kcal/mol. The value for ELREAFRLYDKEGNGYISTDVMREILAELDETLSSEDLDAMIDEIDADGSGTVSFEEFMGVMT [D54S] was 2.43 kcal/mol. The result for ELREAFRLYDKEGNGYISTDVMREILAELDETLSSEDLDAMIDEIDADGSGTVIFEEFMGVMT [D54I] reads 1.27 kcal/mol; that for ELREAFRLYDKEGNGYISTDVMREILAELDETLSSEDLDAMIDEIDADGSGTVRFEEFMGVMT [D54R], 1.73 kcal/mol; that for ELREAFRLYDKEGNGYISTDVMREILAELDETLSSEDLDAMIDEIDADGSGTVAFEEFMGVMT [D54A], 1.78 kcal/mol. The result for ELREAFRLYDKEGNGYISTDVMREILAELDETLSSEDLDAMIDEIDADGSGTVLFEEFMGVMT [D54L] reads 1.43 kcal/mol; that for ELREAFRLYDKEGNGYISTDVMREILAELDETLSSEDLDAMIDEIDADGSGTVFFEEFMGVMT [D54F], 1.79 kcal/mol; that for ELREAFRLYDKEGNGYISTDVMREILAELDETLSSEDLDAMIDEIDADGSGTVPFEEFMGVMT [D54P], 1.14 kcal/mol. Turning to ELREAFRLYDKEGNGYISTDVMREILAELDETLSSEDLDAMIDEIDADGSGTVKFEEFMGVMT [D54K], the “folding stability dG” value is 1.57 kcal/mol. The value for ELREAFRLYDKEGNGYISTDVMREILAELDETLSSEDLDAMIDEIDADGSGTVMFEEFMGVMT [D54M] was 1.76 kcal/mol; that for ELREAFRLYDKEGNGYISTDVMREILAELDETLSSEDLDAMIDEIDADGGGTVDFEEFMGVMT [S50G] was 1.05 kcal/mol; that for ELREAFRLYDKEGNGYISTDVMREILAELDETLSSEDLDAMIDEIDADGVGTVDFEEFMGVMT [S50V] was 1.18 kcal/mol. The result for ELREAFRLYDKEGNGYISTDVMREILAELDETLSSEDLDAMIDEIDADGEGTVDFEEFMGVMT [S50E] reads 0.94 kcal/mol; that for ELREAFRLYDKEGNGYISTDVMREILAELDETLSSEDLDAMIDEIDADGNGTVDFEEFMGVMT [S50N], 1.67 kcal/mol. The result for ELREAFRLYDKEGNGYISTDVMREILAELDETLSSEDLDAMIDEIDADGYGTVDFEEFMGVMT [S50Y] reads 1.05 kcal/mol. ELREAFRLYDKEGNGYISTDVMREILAELDETLSSEDLDAMIDEIDADGHGTVDFEEFMGVMT [S50H]: the “folding stability dG” value turned out to be 1.16 kcal/mol. On to ELREAFRLYDKEGNGYISTDVMREILAELDETLSSEDLDAMIDEIDADGRGTVDFEEFMGVMT [S50R], for which the “folding stability dG” value stood at 1.61 kcal/mol. The value for ELREAFRLYDKEGNGYISTDVMREILAELDETLSSEDLDAMIDEIDADGIGTVDFEEFMGVMT [S50I] was 1.14 kcal/mol; that for ELREAFRLYDKEGNGYISTDVMREILAELDETLSSEDLDAMIDEIDADGQGTVDFEEFMGVMT [S50Q] was 1.12 kcal/mol. The result for ELREAFRLYDKEGNGYISTDVMREILAELDETLSSEDLDAMIDEIDADGMGTVDFEEFMGVMT [S50M] reads 1.29 kcal/mol; that for ELREAFRLYDKEGNGYISTDVMREILAELDETLSSEDLDAMIDEIDADGWGTVDFEEFMGVMT [S50W], 0.737 kcal/mol; that for ELREAFRLYDKEGNGYISTDVMREILAELDETLSSEDLDAMIDEIDADGPGTVDFEEFMGVMT [S50P], 0.13 kcal/mol. Regarding ELREAFRLYDKEGNGYISTDVMREILAELDETLSSEDLDAMIDEIDADGLGTVDFEEFMGVMT [S50L], the “folding stability dG” value stood at 1.22 kcal/mol. The value for ELREAFRLYDKEGNGYISTDVMREILAELDETLSSEDLDAMIDEIDADGFGTVDFEEFMGVMT [S50F] was 0.991 kcal/mol; that for ELREAFRLYDKEGNGYISTDVMREILAELDETLSSEDLDAMIDEIDADGKGTVDFEEFMGVMT [S50K] was 1.78 kcal/mol; that for ELREAFRLYDKEGNGYISTDVMREILAELDETLSSEDLDAMIDEIDADGTGTVDFEEFMGVMT [S50T] was 1.88 kcal/mol.

As for ELREAFRLYDKEGNGYISTDVMREILAELDETLSSEDLDAMIDEIDADGSITVDFEEFMGVMT [G51I], the “folding stability dG” value is 0.064 kcal/mol. The result for ELREAFRLYDKEGNGYISTDVMREILAELDETLSSEDLDAMIDEIDADGSFTVDFEEFMGVMT [G51F] reads 0.853 kcal/mol; that for ELREAFRLYDKEGNGYISTDVMREILAELDETLSSEDLDAMIDEIDADGSNTVDFEEFMGVMT [G51N], 1.18 kcal/mol; that for ELREAFRLYDKEGNGYISTDVMREILAELDETLSSEDLDAMIDEIDADGSDTVDFEEFMGVMT [G51D], 0.686 kcal/mol. The result for ELREAFRLYDKEGNGYISTDVMREILAELDETLSSEDLDAMIDEIDADGSYTVDFEEFMGVMT [G51Y] reads 0.517 kcal/mol. The value for ELREAFRLYDKEGNGYISTDVMREILAELDETLSSEDLDAMIDEIDADGSSTVDFEEFMGVMT [G51S] was 0.834 kcal/mol; that for ELREAFRLYDKEGNGYISTDVMREILAELDETLSSEDLDAMIDEIDADGSQTVDFEEFMGVMT [G51Q] was 1.01 kcal/mol; that for ELREAFRLYDKEGNGYISTDVMREILAELDETLSSEDLDAMIDEIDADGSCTVDFEEFMGVMT [G51C] was 0.991 kcal/mol. As to ELREAFRLYDKEGNGYISTDVMREILAELDETLSSEDLDAMIDEIDADGSKTVDFEEFMGVMT [G51K], the “folding stability dG” value turned out to be 1.27 kcal/mol. The value for ELREAFRLYDKEGNGYISTDVMREILAELDETLSSEDLDAMIDEIDADGSRTVDFEEFMGVMT [G51R] was 1.35 kcal/mol; that for ELREAFRLYDKEGNGYISTDVMREILAELDETLSSEDLDAMIDEIDADGSWTVDFEEFMGVMT [G51W] was 0.564 kcal/mol.
